Data reported in the Human Domainome abundance scans (Beltran et al. 2025).

B1: 3'-5' exoribonuclease 1, residues 65 to 114; numbered along this chain, Q8IV48 (parent)
chain: VYKEIAITNGCINRMSKEELRAKLSEFKLETRGVKDVLKKRLKNYYKKQK

Variants of: B1
Test: abundance fitness (aPCA) (normalised: wild type 0, dead -1); higher = more abundant; growth selection in yeast, the domain comes from the species named
Details: Homo sapiens

Abundance fitness: each site, then its substitutions
K39: F -0.909 | Y -0.917 | E -0.939 | L -0.632 | D -0.967 | H -1.11 | M -0.521 | T -0.458 | G -0.721 | P -0.979 | C -0.396 | Q -0.398 | N -0.582 | A -0.36 | I -0.382 | V -0.196 | W -1.04 | R -0.114
R32: S -0.318 | L -0.703 | I -0.628 | Q -0.396 | P -0.964 | A -0.383 | F -0.521 | H -0.319 | T -0.292 | C -0.459 | M -0.646 | K -0.209 | E -0.572 | V -0.471 | N -0.409 | G -0.394 | D -0.399 | W -0.478
T31: K -0.05 | Y 0.121 | I -0.134 | Q -0.156 | P -0.114 | F 0.038 | N -0.115 | S -0.088 | G -0.791 | W -0.161 | M -0.285 | H 0.143 | A -0.198 | R -0.327 | L -0.639 | V -0.106
V37: S -0.136 | G -0.639 | T 0.01 | C -0.191 | Y -0.853 | W -0.763 | E -0.096 | L -0.544 | I -0.228 | F -0.562 | K 0.027 | Q -0.148 | N -0.321 | P -1.02 | D -0.25 | H -0.695 | A -0.037 | R -0.124
L38: N -0.95 | E -0.933 | T -0.993 | A -0.893 | F -0.668 | Y -1.05 | S -0.458 | K -0.828 | G -1.09 | Q -0.874 | M -0.338 | R -0.948 | I -0.541 | H -1.02 | P -0.968 | D -0.376 | W -0.629
V34: H 0.054 | C -0.078 | A -0.177 | P -0.379 | E -0.553 | F -0.245 | G -0.213 | R 0.11 | D -0.293 | N 0.039 | L -0.213 | K 0.079 | M -0.582 | T 0.046 | I -0.064 | Q -0.241 | W -0.352 | S -0.109 | Y -0.244
D36: H 0 | K 0.044 | N 0.02 | L -0.201 | W -0.106 | Y -0.176 | F -0.289 | M -0.27 | R 0 | A -0.024 | G -0.244 | S 0.048 | E -0.379 | Q -0.236 | P -0.17 | I -0.334 | T -0.042 | V -0.292
E30: T -0.566 | S -0.148 | Y -0.387 | V -0.738 | W -0.516
K40: A -0.427 | D -0.741 | C -0.705 | E -0.44
K35: T -0.314 | M -0.765 | L -0.698 | N -0.697 | Y -0.827 | C -0.58 | V -0.262 | G -0.845 | F -0.81 | S -0.48 | I -0.475 | W -0.815 | R -0.52 | P -0.797 | H -0.709 | D -0.772 | Q -0.767 | A -0.347
G33: C -0.608 | Q -1.09 | Y -0.931 | N -0.991 | K -0.93 | S -0.787 | E -0.791 | T -1.06 | H -0.875 | D -0.663 | M -0.988 | I -0.97 | W -0.779 | A -0.842 | R -0.739 | F -0.977
